{
  "source": "paper PMC7863765",
  "key": {"[1]": {"target": "polyphosphorylated full-length SARS-CoV-2 nucleocapsid protein pN.1-419 (SARS-CoV-2) (UniProt P0DTC9)", "test": "SEC"}, "[2]": {"target": "polyphosphorylated full-length SARS-CoV-2 nucleocapsid protein pN.1-419 (SARS-CoV-2) (UniProt P0DTC9)", "test": "SEC-MALS"}},
  "data": [
    {"substance": "untagged full-length human 14-3-3γ (from UniProt P61981 1-247) (natural protein)", "values": [
      {"measurement": "Kd", "setting": "[1]", "result": 1.5, "unit": "µM"},
      {"measurement": "stoichiometry N (14-3-3γ chains per pN.1-419 chain (2:2))", "setting": "[1]", "result": 1},
      {"measurement": "stoichiometry N (14-3-3γ chains per pN.1-419 chain (2:2))", "setting": "[2]", "result": 1}
    ]}
  ]
}
